According to patent US20240400618A1:

Molecular target: pxEBN4-ACE2-AAA-His (human) (UniProt Q9BYF1)

Substance | Kd [nM]
SA, Beta, pxENB9-FLS-B.1.351 (from UniProt P0DTC2 15-1213) (ligand) | 1.57
UK, Alpha, pxENB9-FLS (from UniProt P0DTC2 15-1213) (ligand) | 0.00116
